In patent US6531312:

Legend:
GST-Cdc25C, P30307 = target: T1, GST-Cdc25C, P30307
T1 chain: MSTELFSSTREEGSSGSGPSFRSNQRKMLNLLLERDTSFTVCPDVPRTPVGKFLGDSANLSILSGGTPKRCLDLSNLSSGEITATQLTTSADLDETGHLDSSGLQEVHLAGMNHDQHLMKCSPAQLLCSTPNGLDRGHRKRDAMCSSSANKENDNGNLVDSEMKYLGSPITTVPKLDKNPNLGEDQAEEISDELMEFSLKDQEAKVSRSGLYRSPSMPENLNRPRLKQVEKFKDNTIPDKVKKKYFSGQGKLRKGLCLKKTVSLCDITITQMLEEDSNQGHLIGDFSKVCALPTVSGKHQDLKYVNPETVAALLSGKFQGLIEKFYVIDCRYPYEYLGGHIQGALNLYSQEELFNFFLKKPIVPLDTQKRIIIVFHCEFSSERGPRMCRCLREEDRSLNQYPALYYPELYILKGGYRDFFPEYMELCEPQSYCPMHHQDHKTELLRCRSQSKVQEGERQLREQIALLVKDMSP

B1: 6his-Chk1 (protein)
chain: MAVPFVEDWDLVQTLGEGAYGEVQLAVNRVTEEAVAVKIVDMKRAVDCPENIKKEICINKMLNHENVVKFYGHRREGNIQYLFLEYCSGGELFDRIEPDIGMPEPDAQRFFHQLMAGVVYLHGIGITHRDIKPENLLLDERDNLKISDFGLATVFRYNNRERLLNKMCGTLPYVAPELLKRREFHAEPVDVWSCGIVLTAMLAGELPWDQPSDSCQEYSDWKEKKTYLNPWKKIDSAPLALLHKILVENPSARITIPDIKKDRWYNKPLKKGAKRPRVTSGGVSESPSGFSKHIQSNLDFSPVNSASSEENVKYSSSQPEPRTGLSLWDTSPSYIDKLVQGISFSQPTCPDHMLLNSQLLGTPGSSQNPWQRLVKRMTRFFTKLDADKSYQCLKETCEKLGYQWKKSCMNQVTISTTDRRNNKLIFKVNLLEMDDKILVDFRLSKGDGLEFKRHFLKIKGKLIDIVSSQKIWLPAT
GST-Cdc25C, P30307
  GST-Cdc25 phosphatase activity (loss of slower migrating phosphorylated forms of Cdc2 on gel): Prior phosphorylation of GST-Cdc25 by 6his-Chk1 leads to a dosedependent reduction in GST-Cdc25 activity
  phosphorylation of GST-Cdc25 (32P ATP, SDS-PAGE, autoradiography): GST-Cdc25 was phosphorylated by 6his-Chk1 and by 6his-hCDS1

B2: GST-Cdc25C (protein)
chain: MSTELFSSTREEGSSGSGPSFRSNQRKMLNLLLERDTSFTVCPDVPRTPVGKFLGDSANLSILSGGTPKRCLDLSNLSSGEITATQLTTSADLDETGHLDSSGLQEVHLAGMNHDQHLMKCSPAQLLCSTPNGLDRGHRKRDAMCSSSANKENDNGNLVDSEMKYLGSPITTVPKLDKNPNLGEDQAEEISDELMEFSLKDQEAKVSRSGLYRSPSMPENLNRPRLKQVEKFKDNTIPDKVKKKYFSGQGKLRKGLCLKKTVSLCDITITQMLEEDSNQGHLIGDFSKVCALPTVSGKHQDLKYVNPETVAALLSGKFQGLIEKFYVIDCRYPYEYLGGHIQGALNLYSQEELFNFFLKKPIVPLDTQKRIIIVFHCEFSSERGPRMCRCLREEDRSLNQYPALYYPELYILKGGYRDFFPEYMELCEPQSYCPMHHQDHKTELLRCRSQSKVQEGERQLREQIALLVKDMSP
6his-Cdc2, P06493
6his-Cdc2, P06493, sequence (P06493 whole entry, looked up): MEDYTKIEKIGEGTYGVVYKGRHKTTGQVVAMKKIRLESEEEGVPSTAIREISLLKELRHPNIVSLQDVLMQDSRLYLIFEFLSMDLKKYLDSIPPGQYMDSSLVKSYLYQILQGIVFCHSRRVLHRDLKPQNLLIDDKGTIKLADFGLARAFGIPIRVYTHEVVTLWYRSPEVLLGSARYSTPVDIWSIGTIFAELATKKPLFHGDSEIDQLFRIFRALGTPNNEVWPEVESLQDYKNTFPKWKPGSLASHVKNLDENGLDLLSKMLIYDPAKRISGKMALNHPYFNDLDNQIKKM
  dephosphorylation of Cdc2 (gel-mobility analysis): GST-Cdc25 catalyses a reduction in the slower migrating phosphorylated forms of Cdc2
